The values below come from publication PMC11213338.

Experiment [1] concerns the target γb protein of BSMV, expressed by the virus. In words: immunogold labeling with γb antibody, TEM. The settings on record: virions purified from infected N. benthamiana leaves at 5 dpi; n = 13; parent: est. 48; read off a plot.
The next experiment addresses GST-γb. In words: GST pull-down. As to conditions: scale: relative anti-His band intensity.
Another experiment deals with CP-His (UniProt P04866). In words: GST pull-down. The settings on record: scale: relative anti-His band intensity.
The target of experiment [2] is BSMV virions (barley stripe mosaic virus (ND18 strain)). In words: immunogold labelling of purified virions (TEM); virions purified from infected leaves, adsorbed onto nickel grids, rabbit antiserum against the CRP 1:100 in BL buffer 2 h at room temperature, goat anti-rabbit 10 nm gold, TEM at 80 kV; also after 0.02 mM EDTA at 4°C for 12 h (fewer gold particles).
Another experiment concerns the target BSMV virions. In words: immunogold labeling with γb antibody, TEM. The settings on record: virions purified from infected N. benthamiana leaves at 5 dpi; n = 13; parent: est. 48; read off a plot.
In experiment [3] the target is γb-GFP-His (barley stripe mosaic virus (ND18 strain)). In words: MST; γb-GFP-His held constant (10 μM), CP-His titrated from 20 μM; PBS with 0.1% Tween 20, 25°C, 20% LED-power, 40% MST-power, Monolith NT.115; no Zn^2+ added.
Experiment [4] shares this target. In words: MST; γb protein with 5 μM Zn^2+ in the buffer held constant, CP protein added as ligand; Monolith NT.115.
Experiment [5] has the same target. In words: MST; γb-GFP-His held constant (10 μM), CP-His titrated from 20 μM; PBS with 0.1% Tween 20, 25°C, 20% LED-power, 40% MST-power, Monolith NT.115; no Zn^2+ added. The source holds these as a separate data set.
In experiment [6] the target is GST-γb (barley stripe mosaic virus (ND18 strain)). In words: pull-down; GST pull-down: purified GST-tag protein with His-tag protein in 50 mM Tris-HCl pH 6.8, 500 mM NaCl, 1.5% glycerol, 0.6% Triton-X 100, 0.1% Tween 20, 3 h at 4°C; with or without 10 μg RNaseA, Zn^2+ 2-200 μM, 20 μM other divalent cations, or EDTA (200 μM in Fig 4D and 4E); blots with anti-GST or anti-His.

BSMV virions H13A: in experiment [1], the response turned out to be 3%. Turning to CP-His (from UniProt P04866) H13A, the response in the experiment with GST-γb (EDTA (200 μM), parent: 0.05) turned out to be 0.04; with GST-γb (no EDTA, parent: 1.00) it was 0.11. For the molecule GST-γb H85A, the response with CP-His (EDTA (200 μM), parent: 0.20) turned out to be 0.23; in the experiment with CP-His (no EDTA, parent: 1.00) it was 0.21.

As for “γb protein of BSMV, expressed by the virus (natural protein)”, in experiment [2], the percent of virions labelled with gold particles (γb antibody) is 50.9%. Turning to “γb protein of BSMV, expressed by the virus H85A”, the response in the experiment with BSMV virions amounted to 8%.

B1: CP-His (natural protein)
chain: MPNVSLTAKGGGHYIEDQWDTQVVEAGVFDDWWVHVEAWNKFLDNLRGINFSVASSRSQVAEYLAALDRDLPADVDRRFAGARGQIGSPNYLPAPKFFRLDKRTIAELTRLSRLTDQPHNNRDIELNRAKRATTNPSPPAQAPSENLTLRDVQPLKDSALHYQYVLIDLQSARLPVYTRKTFERELALEWIIPDAEEA
Regarding B1, the Kd (as a rule, a measure of binding affinity in units of concentration) in experiment [3] was 630 nM; in experiment [4], 150 nM; in experiment [5], 460 nM. This molecule registered a fold reduction of the pull-down with 200 μM EDTA in [6] of 5 fold.
